From publication PMC8162780

How the values were obtained:
purified protein [1] = substrate: CCOCC(O)CO; test: purified protein; assay type: biochemical, Geobacillus stearothermophilus; conditions: 1 mM NAD+, 100 mM sodium phosphate pH 7, 30 °C, free enzyme
purified protein [2] = substrate: OCC(O)CO; test: purified protein; assay type: biochemical, Geobacillus stearothermophilus; conditions: 1 mM NAD+, 100 mM sodium phosphate pH 7, 30 °C, free enzyme
purified protein [3] = substrate: OCC(O)COCC(F)(F)F; test: purified protein; assay type: biochemical, Geobacillus stearothermophilus; conditions: 1 mM NAD+, 100 mM sodium phosphate pH 7, 30 °C, free enzyme
purified protein [4] = substrate: OCC(O)COc1ccccc1; test: purified protein; assay type: biochemical, Geobacillus stearothermophilus; conditions: 1 mM NAD+, 100 mM sodium phosphate pH 7, 30 °C, free enzyme
[5] = substrate: OCC(O)COc1ccccc1; test: purified protein, by the assay type; conditions: 30.0 °C

B1: BsGlyDH (GlyDH from Bacillus stearothermophilus) (Geobacillus stearothermophilus) (protein)
chain: MAAERVFISPAKYVQGKNVITKIANYLEGIGNKTVVIADEIVWKIAGHTIVNELKKGNIAAEEVVFSGEASRNEVERIANIARKAEAAIVIGVGGGKTLDTAKAVADELDAYIVIVPTAASTDAPTSALSVIYSDDGVFESYRFYKKNPDLVLVDTKIIANAPPRLLASGIADALATWVEARSVIKSGGKTMAGGIPTIAAEAIAEKCEQTLFKYGKLAYESVKAKVVTPALEAVVEANTLLSGLGFESGGLAAAHAIHNGFTALEGEIHHLTHGEKVAFGTLVQLALEEHSQQEIERYIELYLSLDLPVTLEDIKLKDASREDILKVAKAATAEGETIHNAFNVTADDVADAIFAADQYAKAYKEKHRK
B1 gave a Km (purified protein [1]) of 13.4 ± 0.4 mM, a Vmax (purified protein [1]) of 0.036 µmol/min/mg and a kcat (purified protein [1]) of 0.19 ± 0.003 s⁻¹. It also gave a kcat/Km (purified protein [1]) of 14 M⁻¹ s⁻¹, a Km (purified protein [2]) of 50 ± 3 mM and a Vmax (purified protein [2]) of 1.4 µmol/min/mg. For the same protein, the kcat (purified protein [2]) was 7.4 ± 0.2 s⁻¹, the kcat/Km (purified protein [2]) was 148 M⁻¹ s⁻¹ and the Km (purified protein [3]) was 78 ± 8 mM. It also gave a Vmax (purified protein [3]) of 0.06 µmol/min/mg, a kcat (purified protein [3]) of 0.32 ± 0.01 s⁻¹ and a kcat/Km (purified protein [3]) of 4 M⁻¹ s⁻¹. For the same protein, the Km (purified protein [4]) was 7 ± 2 mM, the Vmax (purified protein [4]) was 0.14 µmol/min/mg and the kcat (purified protein [4]) was 0.7 ± 0.1 s⁻¹. It also gave a kcat/Km (purified protein [4]) of 112 M⁻¹ s⁻¹ and a Km [5] of 6.6 mM.
